Results as given in US20140295512A1, “Ketol-Acid Reductoisomerases With Improved Performance Properties” (CALIFORNIA INSTITUTE OF TECHNOLOGY, priority 2011, published 2014).

B1: E. coli IlvC: Escherichia coli ketol-acid reductoisomerase (ilvC), wild type (protein, UniProt P05793 2-491, looked up)
Ketol-acid reductoisomerase …: ANYFNTLNLRQQLAQLGKCRFMGRDEFADGASYLQGKKVVIVGCGAQGLNQGLNMRDSGLDISYALRKEAIAEKRASWRKATENGFKVGTYEELIPQADLVINLTPDKQHSDVVRTVQPLMKDGAALGYSHGFNIVEVGEQIRKDITVVMVAPKCPGTEVREEYKRGFGVPTLIAVHPENDPKGEGMAIAKAWAAATGGHRAGVLESSFVAEVKSDLMGEQTILCGMLQAGSLLCFDKLVEEGTDPAYAEKLIQFGWETITEALKQGGITLMMDRLSNPAKLRAYALSEQLKEIMAPLFQKHMDDIISGEFSSGMMADWANDDKKLLTWREETGKTAFETAPQYEGKIGEQEYFDKGVLMIAMVKAGVELAFETMVDSGIIEESAYYESLHELPLIANTIARKRLYEMNVVISDTAEYGNYLFSYACVPLLKPFMAELQPGDLGKAIPEGAVDNGQLRDVNEAIRSHAIEQVGKKLRGYMTDMKRIAVAG
B2: Se1_KARI: Slackia exigua (ATCC 700122) ketol-acid reductoisomerase, wild type, SEQ ID NO: 2 (protein, listed as Slackia exigua)
chain: MSVKTKEKEMAVTILYEQDVDPKVIQGLKVGIIGYGSQGHAHALNLMDSGVDVRVGLREGSSSWKTAEEAGLKVTDMDTAAEEADVIMVLVPDEIQPKVYQEHIAAHLKAGNTLAFAHGFNIHYGYIVPPEDVNVIMCAPKGPGHIVRRQFTEGSGVPDLACVQQDATGNAWDIVLSYCWGVGGARSGIIKATFAEETEEDLFGEQAVLCGGLVELVKAGFETLTEAGYPPELAYFECYHEMKMIVDLMYESGIHFMNYSISNTAEYGEYYAGPKVINEQSREAMKEILKRIQDGSFAQEFVDDCNNGHKRLLEQREAINTHPIETTGAQIRSMFSWIKKED

Tests used:
Assay type in all cases: biochemical
[1] = KARI enzyme assay on cell lysates with NADH and NADPH as cofactors; conditions: for NADH-Dependent Specific Activity: empty vector control subtracted
Protocol: In this example, different KARI enzymes (Table 7) were screened for their activity with NADH and NADPH as cofactor. The enzymes were expressed in an S. cerevisiae strain by means of 2 micron plasmids carrying the KARI genes under the control of the S. cerevisiae TDH3 promoter. The transformants were cultivated in shake flask fermentations as described below and samples were taken after 44 h, centrifuged at 4000×g for 10 mins at 4° C. and the cell pellets were stored at −80° C. until analysis. The pellets were lysed by bead beating and the lysates were analyzed by KARI activity assay as described below using NADH and NADPH as cofactors.
Patched cells (or single colonies) grown on YPD+G418 plates at 30° C. were mixed into 3 mL YP+12% dextrose+200 mM MES, pH 6.5+G418, in 14 mL culture tubes and incubated at 250 RPM, 30° C. for ˜24 hours. The cells from the cultures were used to inoculate YP+12% dextrose+200 mM MES, pH 6.5+G418, in non-baffled flasks with a vented grey screw-caps at OD600 0.01. The cultures were incubated at 250 RPM, 30° C. for 24 hours, diluted 1:3 and incubated for another 20 h at 250 RPM, 30° C. Samples for enzyme assay pellets and protein quantification pellets were taken from each shake flask, and cell-free supernatant was used to measure glucose levels in shake flasks.
The assay and no substrate control reactions were performed in triplicate for each sample. The following stock solutions were prepared: 1 M potassium phosphate, pH 7, 0.1 M MgCl2, 100 mM DTT, 25 mM NADH or NADPH, 200 mM 2-acetolactate. The 2-acetolactate was made fresh each time by mixing 50 μL Ethyl-2-acetoxy-2-methylacetoacetate (EAMAA) with 990 μL water. Gradually 260 μL of 2 N NaOH was added in 10 μL increments to the EAMAA water mixture. After each addition the sample was vortexed for 15 seconds, and the procedure repeated until the entire 260 μL of 2 N NaOH was added. Afterwards the solution was mixed on an orbital shaker for 20 min (Krampitz, 1957). KARI reaction buffer (100 μL per reaction) was prepared to the following concentrations: 250 mM potassium phosphate, pH 7, 10 mM MgCl2, 1 mM DTT, 0.2 mM NADH or NADPH, 10 mM 2-acetolactate. For the no substrate controls, the 2-acetolactate was substituted with water. 10 μL of each lysate were transferred into a 96 well half area assay plate. The reaction was started with 90 μL of reaction buffer to each well using a multichannel pipette. The samples were mixed immediately. The samples were read at 340 nm every 10 s for 5 min.

[2] = KARI assay in 100-μL scale to measure acetolactate KM value; conditions: for Km: NADPH, pH 7.0, read-out: KM (S)-2-acetolactate
Protocol: (§1) An assay buffer was prepared containing 100 mM potassium phosphate pH 7.0, 1 mM DTT, 10 mM MgCl2, and 200 μM NADPH (final concentrations). Five μL purified enzyme and 5 μL of varying concentrations of acetolactate (8-0.125 mM final) were placed into a flat-bottom assay plate (Evergreen Scientific). The reactions were initiated by addition of 90 μL assay buffer. The change in absorbance at 340 nm was monitored over 1 min in a plate reader (TECAN).

[3] = KARI assay in 1-mL scale to measure NADH KM value (Example 5); conditions: for Km: Example 5, pH 7.0
Protocol: (§2) KARI activity was assayed kinetically by monitoring the decrease in NADPH or NADH concentration by measuring the change in absorbance at 340 nm. An assay buffer was prepared containing 100 mM potassium phosphate pH 7.0, 1 mM DTT, 2.5 mM (S)-2-acetolactate, and 10 mM MgCl2 (final concentrations in the 1-mL assay). Twenty μL purified enzyme and 960 μL of the assay buffer were placed into a 1-mL cuvette. The reaction was initiated by addition of 20 μL NADPH or NADH (200 μM final concentration) for a general activity assay. Michaelis-Menten constants for the cofactors were determined with varying concentrations of NADPH or NADH (200-12 μM final).

[4] = KARI assay in 100-μL scale to measure MgCl2 KM value; conditions: for Km: NADPH, pH 7.0, read-out: KM Mg^2+
Protocol: as §1, with “DTT, 2.5” for “DTT, 10”, “mM (S)-2-acetolactate,” for “mM MgCl2,”, “of MgCl2” for “of acetolactate (8-0.125 mM final)”

[5] = KARI assay in 1-mL scale to measure NADPH KM value (Example 5); conditions: for Km: Example 5, pH 7.0
Protocol: as §2

Molecule	Specific Activity with NADH/Specific Activity with NADPH [1]	NADH-Dependent Specific Activity [1] [U/mg lysate]	KM for acetolactate, times higher than KM of S. exigua KARI [2] [fold]	KM, fold higher than the Ki for R-DHIV [2] [fold]	Km [2] [µM]	NADH KM, times higher than NADH KM for S. exigua KARI [3] [fold]	Km [3] [µM]	Km ([3]; listed as E. coli KARI) [µM]	KM for Mg^2+, times higher than KM of S. exigua KARI [4] [fold]	Km [4] [µM]	NADPH KM, times higher than NADPH KM for S. exigua KARI [5] [fold]	Km [5] [µM]	KM, fold lower than the Ki for R-DHIV [2] [fold]	kcat with NADH ([3]; Example 5) [s⁻¹]
B1	0.175	0.04	32	3	300 ± 100	22	1000	~1000	2.9	2000 ± 500	~20	20 ± 3		
B2	0.96	0.059			170		45 ± 10			700		< 1	10	0.4
